This note sets out measurements from paper PMC8437434.

Experiment [1] deals with tau^4R (residues 244-372, C322A) (UniProt P10636).
Experiment [2] has the same target. The source holds these as a separate data set.

Chain of tau^4R (residues 244-372, C322A) (P10636 561-689 C639A): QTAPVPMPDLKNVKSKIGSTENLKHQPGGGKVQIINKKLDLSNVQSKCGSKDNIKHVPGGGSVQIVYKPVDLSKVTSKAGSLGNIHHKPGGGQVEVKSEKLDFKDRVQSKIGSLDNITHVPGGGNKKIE

As for “HSPB1 3D GXG variant (S15D, S78D, S82D, I181G, V183G) (from UniProt P04792 1-205) (natural protein)”, in experiment [1], the reduction of tau fibril mass (kinetic measurements) at equimolar HSPB1:tau was 45%. The substance further came in with a reduction of tau fibril mass (unnormalised ThT kinetics) at 1:1 HSPB1:tau in experiment [2] of 47%. In turn, “full-length DNAJB1 (from UniProt P25685 1-340) (natural protein)” gave a reduction of tau fibril mass (unnormalised ThT kinetics), DNAJB1:tau 0.5:1 (67%) to 1:1 in experiment [2] of 94%.
